Source: patent US20180334493A1 (Takeda / Millennium, published 2018)

Molecular target: T1, C1 esterase (UniProt P09871 16-688, limits assumed)
T1 sequence (looked up): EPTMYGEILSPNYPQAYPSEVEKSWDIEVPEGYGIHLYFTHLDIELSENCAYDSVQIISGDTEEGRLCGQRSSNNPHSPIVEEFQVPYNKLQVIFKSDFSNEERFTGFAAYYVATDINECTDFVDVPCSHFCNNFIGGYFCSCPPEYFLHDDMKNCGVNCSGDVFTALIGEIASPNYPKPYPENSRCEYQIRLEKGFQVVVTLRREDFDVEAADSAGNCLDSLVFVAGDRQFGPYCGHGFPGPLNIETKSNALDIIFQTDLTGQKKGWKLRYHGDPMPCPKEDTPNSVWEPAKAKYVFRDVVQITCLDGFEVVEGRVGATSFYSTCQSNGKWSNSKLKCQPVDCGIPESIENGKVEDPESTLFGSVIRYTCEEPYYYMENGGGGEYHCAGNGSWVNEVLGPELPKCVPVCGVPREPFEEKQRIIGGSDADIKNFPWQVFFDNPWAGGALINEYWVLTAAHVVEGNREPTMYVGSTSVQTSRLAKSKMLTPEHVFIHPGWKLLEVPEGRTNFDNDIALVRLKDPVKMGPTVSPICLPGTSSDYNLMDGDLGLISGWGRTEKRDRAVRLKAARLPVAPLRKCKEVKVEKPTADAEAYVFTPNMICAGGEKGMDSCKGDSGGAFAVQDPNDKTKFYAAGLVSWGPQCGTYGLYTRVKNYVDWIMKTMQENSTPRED
Test: cell-based or functional assay

potency relative to the initial development reference standard: 121%
B1: recombinant human C1 esterase inhibitor (rhC1-INH) (other)
chain: NPNATSSSSQDPESLQDRGEGKVATTVISKMLFVEPILEVSSLPTTNSTTNSATKITANTTDEPTTQPTTEPTTQPTIQPTQPTTQLPTDSPTQPTTGSFCPGPVTLCSDLESHSTEAVLGDALVDFSLKLYHAFSAMKKVETNMAFSPFSIASLLTQVLLGAGQNTKTNLESILSYPKDFTCVHQALKGFTTKGVTSVSQIFHSPDLAIRDTFVNASRTLYSSSPRVLSNNSDANLELINTWVAKNTNNKISRLLDSLPSDTRLVLLNAIYLSAKWKTTFDPKKTRMEPFHFKNSVIKVPMMNSKKYPVAHFIDQTLKAKVGQLQLSHNLSLVILVPQNLKHRLEDMEQALSPSVFKAIMEKLEMSKFQPTLLTLPRIKVTTSQDMLSIMEKLEFFDFSYDLNLCGLTEDPDLQVSAMQHQTVLELTETGVEAAAASAISVARTLLVFEVQQPFLFVLWDQQHKFPVFMGRVYDPRA
modifications: heavily N- and O-glycosylated, sialylated (CHO-expressed)
